Measurements: US20250230236A1 (SINGAPORE HEALTH SERVICES PTE, published 2025)

Biological target: T1, GRP78 (UniProt P11021 19-654)
T1 construct: Endogenous protein of PC-9 cells
Assay: cross-immunoprecipitation
Procedure: FIGS. 6A-6B show A) immunoprecipitation with GR 6A04. Boxed area was excised for mass spectrometry. B) Mass spectrometry analysis of excised region identified the top 5 putative antigens after removal of non-specific hits found in the same region in the Column Control lane. […] The antigen identity was then validated by a pull-down with commercial antibodies against the target, and a cross-probe of the immunoprecipitated products with GR 6A04, and vice-versa. GRP78 was tested by cross-IP and ruled out as possible antigen for GR 6A04.
Immunoprecipitation (IP) was conducted using the automated Phynexus MEA system (Phynexus Inc., USA). GR6A04 was captured onto Protein G PhyTip columns containing 5 ul of resin bed. The column was then washed with PBS to remove unbound proteins, and PC-9 membrane protein extract was introduced to bind to GR6A04 that has been captured on the column. The column was then washed with Wash Buffer II (140 mM NaCl, pH7.4) before elution at low pH with Elution Buffer (200 mM NaH2PO4/140 mM NaCl pH 2.5) and neutralized immediately with 1 M Tris-Cl pH 9.0. The IP product is then subjected to analysis by Western blot.

T1 sequence (P11021 19-654 limits assumed): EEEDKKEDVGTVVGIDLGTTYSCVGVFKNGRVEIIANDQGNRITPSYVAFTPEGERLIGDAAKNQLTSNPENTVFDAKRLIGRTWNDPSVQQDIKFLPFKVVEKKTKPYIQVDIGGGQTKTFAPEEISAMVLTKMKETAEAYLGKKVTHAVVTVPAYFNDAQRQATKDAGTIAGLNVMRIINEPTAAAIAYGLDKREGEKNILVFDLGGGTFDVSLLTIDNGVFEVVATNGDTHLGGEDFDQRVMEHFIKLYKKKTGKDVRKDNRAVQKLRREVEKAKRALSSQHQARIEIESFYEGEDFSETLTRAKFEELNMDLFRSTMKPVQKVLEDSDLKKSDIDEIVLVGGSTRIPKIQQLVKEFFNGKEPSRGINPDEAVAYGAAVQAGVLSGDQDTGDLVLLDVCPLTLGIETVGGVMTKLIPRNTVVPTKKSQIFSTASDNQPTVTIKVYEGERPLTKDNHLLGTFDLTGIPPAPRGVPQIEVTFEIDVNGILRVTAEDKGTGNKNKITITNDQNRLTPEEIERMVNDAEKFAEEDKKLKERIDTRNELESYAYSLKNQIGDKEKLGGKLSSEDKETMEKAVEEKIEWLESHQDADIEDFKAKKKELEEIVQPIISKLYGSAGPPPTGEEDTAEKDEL

B1: GR6A04 monoclonal antibody (antibody, mouse IgG1, V domains shown)
VH: SGPELVKPGASVKMSCKASGNTFTSYVMHWVKQKPGQGLEWIGYINPYNDGTKYNEKFKGKATLTSDKSSSTAYMELSSLTSEDSAVYYCARSTARATPYFYAMDYWGQGTSVTVSS
VL: DILMTQSPSSLAVTAGEKVTMRCKSSQSLLWSVNQNSYLSWYQLKQGQPPKLLLYGASIRESWVPDRFTGSGSGTDFTLTISNVHVEDLAVYYCQHNHGSFLPYTFGGGTKLEIK
notes: also called mAb GR 6A04
B1: no binding.
